Values of other authors, collected in patent US20260256431A1, “IMAGING OF MATRIX METALLOPROTEINASE INHIBITORS” (Micro Vide, LLC, priority 2022, published 2026).

System: MMP-2, MMP-9, and MMP-14

B1: rTIMP-3: recombinant tissue inhibitor of metalloproteinases-3 (protein, UniProt P35625 24-211, looked up)
Metalloproteinase inhibitor 3: CTCSPSHPQDAFCNSDIVIRAKVVGKKLVKEGPFGTLVYTIKQMKMYRGFTKMPHVQYIHTEASESLCGLKLEVNKYQYLLTGRVYDGKMYTGLCNFVERWDQLTLSQRKGLNYRYHLGCNCKIKSCYYLPCFVTSKNECLWTDMLSNFGYPGYQSKHYACIRQKGGYCSWYRGWAPPDKSIINATDP
MMP activity and LV remodeling and indices of heart failure progression (intracoronary delivery in pigs at the time of reperfusion, earlier study): favorably reduced | tissue MMP-2, MMP-9, and MMP-14 activity (sustained release of rTIMP-3 from a hydrogel, observed previously): inhibition
